Test results taken from patent publication US20010052137A1, “Axin domain-like polypeptide inhibitors of glycogen synthase kinase 3 beta activity and activators of wnt signaling” (Trustees of the University of Pennsylvania, priority 2000, published 2001).

B1: deltaGID: Xaxin having amino acid residues 324-504 deleted (protein)
chain: MSVKGKGFPLDLGGSFTEDAPRPPVPGEEGELITTDQRPFSHTYYSLKNDGIKNETSTATPRRPDLDLGYEPEGSASPTPPYLKWAESLHSLLDDQDGIHLFRTFLQQENCADLLDFWFACSGFRKLEPNDSKVEKRLKLAKAIYKKYVLDSNGIVSRQIKPATKSFIKDCVLRQQIDPAMFDQAQMEIQSMMEDNTYPVFLKSDIYLEYTTIGGESPKNYSDQSSGSGTGKGPSGYLPTLNEDEEWRCDQGGEHERERECIPSSLFSQKLALDSSSHCAGSNRRLSDGREFRPGTWREPVNPYYVNTGYAGAPVTSANDSEQQHLSKTLPGSLGTMQTGHGKHSSKSTAKVDSGNLHHHKHVYHHVHHHGGVKPKEQIDGESTQRVQTNFPWNVESHNYATKSRNYAESMGMAPNPMDSLAYSGKVSMLSKRNAKKADLGKSESASHEMPVVPEDSERHQKILQWIMEGEKEIIRHKKSNHSSSSAKKQPPTELARPLSIERPGAVHPWVSAQLRNVVQPSHPFIQDPTMPPNPAPNPLTQLVSKPGARLEEEEKKAAKMPQKQRLKPQKKNVSAPSQPCDNIVVAYYFCGEPIPYRTMVKGRVVTLGQFKELLTKKGNYRYYFKKVSDEFDCGVVFEEVREDDMILPIYEEKIIGQVEKID
modifications: left off: small tags and cut ends
notes: Xaxin having amino acid residues 324-504 deleted
B2: amino-terminal fragment: Myc-tagged fragment, amino acid residues 63-288 of Xaxin (protein)
chain: RPDLDLGYEPEGSASPTPPYLKWAESLHSLLDDQDGIHLFRTFLQQENCADLLDFWFACSGFRKLEPNDSKVEKRLKLAKAIYKKYVLDSNGIVSRQIKPATKSFIKDCVLRQQIDPAMFDQAQMEIQSMMEDNTYPVFLKSDIYLEYTTIGGESPKNYSDQSSGSGTGKGPSGYLPTLNEDEEWRCDQGGEHERERECIPSSLFSQKLALDSSSHCAGSNRRLSD
modifications: left off: small tags and cut ends
notes: Myc-tagged fragment, amino acid residues 63-288 of Xaxin
B3: carboxyl-terminal fragment: Myc-tagged fragment, amino acid residues 429-713 of Xaxin (protein)
chain: SGPSVISHKLPSGPPMHHFNSRYSETGCVGMQIRDAHEENPESILDEHVQRVMKTPGCQSPGTGRHSPKSRSPDGHLSKTLPGSLGTMQTGHGKHSSKSTAKVDSGNLHHHKHVYHHVHHHGGVKPKEQIDGESTQRVQTNFPWNVESHNYATKSRNYAESMGMAPNPMDSLAYSGKVSMLSKRNAKKADLGKSESASHEMPVVPEDSERHQKILQWIMEGEKEIIRHKKSNHSSSSAKKQPPTELARPLSIERPGAVHPWVSAQLRNVVQPSHPFIQDPTMPPN
modifications: left off: small tags and cut ends
notes: Myc-tagged fragment, amino acid residues 429-713 of Xaxin
B4: deltaRGS: Xaxin having amino acid residues 80-290 (RGS domain) deleted (protein)
chain: MSVKGKGFPLDLGGSFTEDAPRPPVPGEEGELITTDQRPFSHTYYSLKNDGIKNETSTATPRRPDLDLGYEPEGSASPTPREFRPGTWREPVNPYYVNTGYAGAPVTSANDSEQQSMSSDADTMSLTDSSVDGIPPYRLRKHYRREMQESANANGRGPLPHIPRTYHMPKDIHVDPEKFAAELISRLEGVLRDREAEQKLEERLKRVRAEEEGDDGDVSSGPSVISHKLPSGPPMHHFNSRYSETGCVGMQIRDAHEENPESILDEHVQRVMKTPGCQSPGTGRHSPKSRSPDGHLSKTLPGSLGTMQTGHGKHSSKSTAKVDSGNLHHHKHVYHHVHHHGGVKPKEQIDGESTQRVQTNFPWNVESHNYATKSRNYAESMGMAPNPMDSLAYSGKVSMLSKRNAKKADLGKSESASHEMPVVPEDSERHQKILQWIMEGEKEIIRHKKSNHSSSSAKKQPPTELARPLSIERPGAVHPWVSAQLRNVVQPSHPFIQDPTMPPNPAPNPLTQLVSKPGARLEEEEKKAAKMPQKQRLKPQKKNVSAPSQPCDNIVVAYYFCGEPIPYRTMVKGRVVTLGQFKELLTKKGNYRYYFKKVSDEFDCGVVFEEVREDDMILPIYEEKIIGQVEKID
modifications: left off: small tags and cut ends
notes: Xaxin having amino acid residues 80-290 (RGS domain) deleted

Assays:
GSK-3 beta [1] = assay: In ovo tau phosphorylation assay: GSK-3 beta and Xaxin constructs co-expressed in Xenopus oocytes; format: cell-based; settings: construct co-expressed with GSK-3 beta in Xenopus oocytes; tau microinjected; PHF-1 immunoblot
Method: Stage VI Xenopus oocytes were isolated by collagenase treatment (Smith et al., 1994, Meth. Cell Biol. 36:45-58) and were injected with mRNA prepared by in vitro transcription (mMessage Machine™; Ambion, Austin, Tex.). 10 nanoliters of mRNA (containing 1-2 nanograms per nanoliter) was injected for each construct (unless otherwise specified), and the injected oocytes were incubated for 16 hours at 18° C. To analyze the effects of Xaxin constructs on dorsal-ventral pattern formation, Xenopus embryos were injected with 10 nanoliters of mRNA (0.1-0.2 nanogram per nanoliter) into one dorsal or ventral cell of a 4 cell embryo and dorsal axes were assessed at the tadpole stage. For Xaxin co-immunoprecipitation, fertilized eggs were injected with 10 nanoliters of Xaxin tagged with Myc, with hemagglutinin, or with both Myc and hemagglutinin (1 nanogram per nanoliter) and harvested at the blastula stage (stage 8).
In ovo phosphorylation of tau by GSK-3 beta was performed by microinjection of tau protein into oocytes expressing GSK-3 beta and Xaxin constructs. After 90 minutes, oocytes were homogenized and tau phosphorylation was analyzed in western blots using phospho-specific antibodies as described (Hedgepeth et al., 1997, Develop. Biol. 185:82-91). In vitro assays for GSK-3 beta activity were performed as described (Klein et al., 1996, Proc. Natl. Acad. Sci. USA 93:8455-8459). Recombinant GID-2/his protein (described below) was purified by affinity chromatography and added to in vitro assays at selected concentrations.
In the experiments presented in this example, a tau phosphorylation assay (described in Hedgepeth et al., 1997, Develop. Biol. 185:82-91) was used to examine the activity of GSK-3 beta in Xenopus oocytes in the presence of full length axin and axin deletion mutants. […] Furthermore, GSK-3 beta-dependent tau phosphorylation occurs in oocytes at the same sites (tau serine residues 396 and 404) that are phosphorylated by GSK-3 beta in vitro and occurs with similarly rapid kinetics.
GSK-3 beta was expressed in oocytes together with Myc-tagged full length Xaxin or with the amino-terminal (amino acid residues 63-288), GID-1 (amino acid residues 277-545), or carboxyl-terminal (amino acid residues 429-713) fragments of Xaxin, as depicted in FIG. 1A. Purified tau protein was then microinjected into the oocytes, and phosphorylation of tau was measured by immunoblotting using antibody PHF-1 or with antibodies that detect all (i.e. phosphorylated and non-phosphorylated) forms of tau.
In order to identify the domain of axin necessary for GSK-3 beta binding, multiple Myc-tagged GID deletion constructs (shown diagrammatically in FIG. 3A) were individually expressed in Xenopus oocytes in which GSK-3 beta was also expressed. Tau protein was microinjected into the oocytes, and immunoblotting was performed using phosphorylation-state-specific tau antibodies. A parallel group of oocytes expressing GSK-3 beta and the Myc-tagged GID deletion constructs were lysed, and GID proteins were immunoprecipitated using a Myc-specific antibody. The presence or absence of GSK-3 beta in GID immunoprecipitates was detected using GSK-3 beta-specific antibodies. GID deletion constructs which included amino acid residues 380-404 of Xaxin (i.e. constructs GID-1, GID-2, GID-4, GID-5, and GID-6) bound GSK-3 beta and inhibited GSK-3 beta mediated tau phosphorylation, as indicated in FIG. 3A. […] However, changing leucine residue 392 in FIG. 3B to proline abolishes its activity.

Xenopus embryos = assay: Dorsal axis duplication / dorsalization in Xenopus embryos after mRNA injection; format: in vivo; settings: for effect on axial development / axis formation: construct expressed in embryos, injection side not stated
GSK-3 beta [2] = assay: Co-immunoprecipitation of GSK-3 beta with Myc-tagged Xaxin constructs in Xenopus oocytes; format: binding; settings: Myc-tagged construct co-expressed with GSK-3 beta in Xenopus oocytes; anti-Myc IP, anti-GSK-3 beta blot
beta-catenin = beta-catenin protein accumulation in Xenopus oocytes (immunoblot); format: cell-based; settings: construct mRNA expressed in Xenopus oocytes
Method: FIG. 2A is an image of an immunoblot of Xenopus cytoplasmic extracts obtained from Xenopus embryos in which beta-catenin was expressed, using an antibody which binds specifically with beta-catenin (described in McCrea et al., 1993, J. Cell. Biol. 123:477-84). The embryo corresponding to lane 2 was incubated in the presence of 20 millimolar LiCI. Extracts corresponding to lanes 3-5, 7, and 8 were obtained from embryos in which full-length (lane 8) Xaxin or the C-term (lane 3), GID1 (“GID”; lanes 4 and 7), or N-term (lane 5) fragments of Xaxin were expressed.
Although endogenous GSK-3 beta is not present at sufficient levels to detect using the tau assay, inhibition of GSK-3 beta is known to cause stabilization of cytoplasmic beta-catenin (Cadigan et al., 1997, Genes Dev. 11:3286-3305; Miller et al., 1996, Genes Develop. 10:2527-2539), and this serves as a widely used assay for downstream activation of wnt signaling. Inhibition of endogenous GSK-3 beta activity also causes stabilization of beta-catenin in Xenopus embryos and oocytes (Hedgepeth et al., 1997, Develop. Biol. 185:82-91; Yost et al., 1998, Cell 93:1031-1041; Yost et al., 1996, Genes Develop. 10:1443-1454). For this reason, levels of beta-catenin protein were assessed in Xenopus oocytes which had been injected either with full length Xaxin mRNA or with mRNA encoding one of the amino-terminal, GID, or carboxyl-terminal domains of Xaxin.

Molecule | GSK-3 beta-mediated tau phosphorylation (GSK-3 beta activity) (GSK-3 beta [1]) | effect on axial development / axis formation (Xenopus embryos) | binding with GSK-3 beta (co-immunoprecipitation) (GSK-3 beta [2]) | accumulation of beta-catenin (beta-catenin) | embryos that exhibited dorsalization (Xenopus embryos; construct(s) expressed in Xenopus embryos) [%]
B1 | no discernible effect | infrequent ectopic posterior axis formation | did not bind | – | –
B2 | no effect | no apparent effect | Neither the amino- nor carboxyl-terminal fragments of axin bound | not observed | –
B3 | no effect | no apparent effect | Neither the amino- nor carboxyl-terminal fragments of axin bound | not observed | –
B4 | inhibited | complete axis duplication | bound | – | 86
